# Results taken from patent US20030203372A1, “Analysis method” (priority 2000, published 2003).
# Key:
# [1] = tested on: primary human cell cultures (11 cell types); experiment: Custom gene array, 11 human cell types in normoxia or hypoxia for 6 hr and 18 hr; format: cell-based;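 on mRNA expression level, #1 HY 18 hr: cell type #1 is adipocyte from subcutaneous adult adipose tissue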;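 on mRNA expression level, #1 HY 6 hr: cell type #1 is adipocyte from subcutaneous adult adipose tissue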;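 on mRNA expression level, #1 NO: cell type #1 is adipocyte from subcutaneous adult adipose tissue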;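 on mRNA expression level, #2 HY 18 hr: cell type #2 is fetal cardiomyocyte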;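 on mRNA expression level, #2 HY 6 hr: cell type #2 is fetal cardiomyocyte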;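 on mRNA expression level, #2 NO: cell type #2 is fetal cardiomyocyte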;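 on mRNA expression level, #3 HY 6 hr: cell type #3 is human umbilical vein endothelial cells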;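 on mRNA expression level, #3 NO: cell type #3 is human umbilical vein endothelial cells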;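 on mRNA expression level, #4 HY 18 hr: cell type #4 is adult dermal fibroblast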;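 on mRNA expression level, #4 HY 6 hr: cell type #4 is adult dermal fibroblast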;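 on mRNA expression level, #4 NO: cell type #4 is adult dermal fibroblast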;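 on mRNA expression level, #5 HY 6 hr: cell type #5 is adult hepatocyte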;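 on mRNA expression level, #5 NO: cell type #5 is adult hepatocyte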;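 on mRNA expression level, #6 HY 6 hr: cell type #6 is blood-derived macrophage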;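 on mRNA expression level, #6 NO: cell type #6 is blood-derived macrophage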
# Experimental: Equivalent cultures of non-immortalized, non-transformed primary human cells of 10 distinct types, were cultured in either normoxia or were exposed to hypoxia for 6 hr and 18 hr, and gene expression changes were determined. […] Moreover, unlike the vast majority of information in the public domain relating to genes responsive to hypoxia, all of these cells were human and were cultured without any modifications following isolation from the human donors.
# A non-primary cell type (#9) was used to represent neurons, since primary human neurons are difficult to source. Therefore a total of 11 cell types are compared. It should be noted that RNA from hepatocytes at the […] timepoint of hypoxia was not available for this work.
# Each RNA sample was hybridised to duplicate or triplicate arrays, to ensure reproducible data, and was analysed using GeneSpring software. Data from replicate arrays were merged during analysis to generate mean values. Data normalisation was achieved per-array using the aforementioned list of control genes, such that differences in RNA labelling or hybridization due to experimental variation were corrected by referencing each gene to the mean value of the reference genes on the same array. Also, for each gene, expression values were obtained which represent the value in each experimental condition (e.g. macrophages 6 hr hypoxia) as compared to the median of value of that gene throughout the full range of experimental conditions (i.e. from all cell types). […] This is common in microarray data analysis.
# [2] = tested on: human breast and ovary tumors; experiment: Custom gene array, breast and ovary tumors versus normal adjacent tissue; conditions: for gene expression level on custom gene array, Breast nor H / gene expression level on custom gene array, Breast nor K / gene expression level on custom gene array, Ovary nor E / gene expression level on custom gene array, Ovary nor F / gene expression level on custom gene array, Ovary nor G: normal adjacent tissue; for gene expression level on custom gene array, Breast nor H / gene expression level on custom gene array, Breast tum H: patient H; for gene expression level on custom gene array, Breast nor K / gene expression level on custom gene array, Breast tum K: patient K; for gene expression level on custom gene array, Breast tum H / gene expression level on custom gene array, Breast tum K / gene expression level on custom gene array, Ovary tum E / gene expression level on custom gene array, Ovary tum F / gene expression level on custom gene array, Ovary tum G: tumor tissue; for gene expression level on custom gene array, Ovary nor E / gene expression level on custom gene array, Ovary tum E: patient E; for gene expression level on custom gene array, Ovary nor F / gene expression level on custom gene array, Ovary tum F: patient F; for gene expression level on custom gene array, Ovary nor G / gene expression level on custom gene array, Ovary tum G: patient G
# From the text: A study has been performed to examine the expression of these genes in a selection of breast and ovary tumors, comparing expression with normal adjacent tissue from the same patient. There is expected to be a large degree of variation between different patients, and the study here contains only 5 patients with a range of diagnoses.
# Patients are designated as Letters:
# E: person. Diagnosis: ovarian adenocarcinoma. Normal ovarian tissue derived from an age-matched separate individual.
# : person. Diagnosis: poorly differentiated adenocarcinoma. Normal ovarian tissue derived from the same individual.
# G: person. Diagnosis: moderately-differentiated adenocarcinoma. Normal ovarian tissue derived from the same individual.
# H: person. Diagnosis: invasive ductal carcinoma. Normnal breast tissue derived from the same individual.
# K: person. Diagnosis: invasive ductal carcinoma. Normal breast tissue derived from the same individual.
# Data normalisation was done per-chip to correct for differences in labelling and hybridization efficiency. Per-gene normalisation was done such that the expression values of each gene are relative to the median value of that gene throughout the series of samples. By comparing the expression values under normal (nor) and tumor (turn) for a single patient, differences in expression between the normal and malignant tissue of that patient can be inferred.
molecule,measurement,setting,value
"p1E19 (nucleic acid, listed as Homo Sapiens, EST array clone; misc_feature 356, 397, 422: n = A,T,C or G) DNA: TTTTTTTTCCTAGTTTCATTAAAGATGGAGTTCATATTTGTTTCTCATATTAATTTTTAAGACAAAAAAAAGCAGAACTGTTTTCACCCATTAAGTTAAAAACTGGAATTTTACCTTTCCAAACTTATTTCCTACCTTGCCCCTTTTCATGTTAATACCATGAACTATTCAGTAATTCTCTTCAAGCTCCATAATTTCCTACTTTCTACTTTTGCTCATTATTTCCATTCCAAGGGAAAGTTCTGTGTGCGTGTCTATTTCTATGTTCAAATTACACCTGTAAGATCCAACTCACAGGGCCATTGCCCTCTAGGGGTCTCTCCTGGATCCACTTCAACAGGAGGTAATTTTATCTNCACCGGATACCATTTCCTCCTTGGACACTTACCTCTTTTANGGGGACTCCCGAGGGTTGAGGGGGNG","mRNA expression level, #1 HY 6 hr","[1]; cell type #1, hypoxia 6 hr",0.65
same,"mRNA expression level, #1 HY 18 hr","[1]; cell type #1, hypoxia 18 hr",0.62
same,"mRNA expression level, #1 NO","[1]; cell type #1, normoxia",0.79
same,"mRNA expression level, #2 HY 6 hr","[1]; cell type #2, hypoxia 6 hr",2.37
same,"mRNA expression level, #2 HY 18 hr","[1]; cell type #2, hypoxia 18 hr",2.99
same,"mRNA expression level, #2 NO","[1]; cell type #2, normoxia",2.64
same,"mRNA expression level, #3 HY 6 hr","[1]; cell type #3, hypoxia 6 hr",1.61
same,"mRNA expression level, #3 HY 18 hr","[1]; cell type #3, hypoxia 18 hr",1.77
same,"mRNA expression level, #3 NO","[1]; cell type #3, normoxia",2.10
same,"mRNA expression level, #4 HY 6 hr","[1]; cell type #4, hypoxia 6 hr",0.40
same,"mRNA expression level, #4 HY 18 hr","[1]; cell type #4, hypoxia 18 hr",0.64
same,"mRNA expression level, #4 NO","[1]; cell type #4, normoxia",0.61
same,"mRNA expression level, #5 HY 6 hr","[1]; cell type #5, hypoxia 6 hr",0.89
same,"mRNA expression level, #5 NO","[1]; cell type #5, normoxia",0.42
same,"mRNA expression level, #6 HY 6 hr","[1]; cell type #6, hypoxia 6 hr",0.76
same,#6 HY 18 hr (mRNA expression level),"[1]; cell type #6, hypoxia 18 hr",1.08
same,"mRNA expression level, #6 NO","[1]; cell type #6, normoxia",0.68
same,#7 HY 6 hr (mRNA expression level),"[1]; cell type #7, hypoxia 6 hr",0.50
same,#7 HY 18 hr (mRNA expression level),"[1]; cell type #7, hypoxia 18 hr",0.32
same,#7 NO (mRNA expression level),"[1]; cell type #7, normoxia",0.41
same,#8 HY 6 hr (mRNA expression level),"[1]; cell type #8, hypoxia 6 hr",0.90
same,#8 HY 18 hr (mRNA expression level),"[1]; cell type #8, hypoxia 18 hr",0.47
same,#8 NO (mRNA expression level),"[1]; cell type #8, normoxia",0.38
same,#9 HY 6 hr (mRNA expression level),"[1]; cell type #9, hypoxia 6 hr",1.11
same,#9 HY 18 hr (mRNA expression level),"[1]; cell type #9, hypoxia 18 hr",1.17
same,#9 NO (mRNA expression level),"[1]; cell type #9, normoxia",1.30
same,#10 HY 6 hr (mRNA expression level),"[1]; cell type #10, hypoxia 6 hr",1.52
same,#10 HY 18 hr (mRNA expression level),"[1]; cell type #10, hypoxia 18 hr",1.39
same,#10 NO (mRNA expression level),"[1]; cell type #10, normoxia",1.29
same,#11 HY 6 hr (mRNA expression level),"[1]; cell type #11, hypoxia 6 hr",1.69
same,#11 HY 18 hr (mRNA expression level),"[1]; cell type #11, hypoxia 18 hr",1.39
same,#11 NO (mRNA expression level),"[1]; cell type #11, normoxia",1.14
same,HIGHEST FOLD CHANGE IN HYPOXIA (hr hypoxia + cell type),"[1]; hypoxia/normoxia induction ratio, 6 hr hepatocyte",2.13 (6 hr hepatocyte) fold
same,"gene expression level on custom gene array, Breast nor H",[2]; Table 18,2.38
same,"gene expression level on custom gene array, Breast nor K",[2]; Table 18,1.19
same,"gene expression level on custom gene array, Breast tum H",[2]; Table 18,2.49
same,"gene expression level on custom gene array, Breast tum K",[2]; Table 18,1.78
same,"gene expression level on custom gene array, Ovary nor E",[2]; Table 18,1.00
same,"gene expression level on custom gene array, Ovary nor F",[2]; Table 18,1.38
same,"gene expression level on custom gene array, Ovary nor G",[2]; Table 18,0.20
same,"gene expression level on custom gene array, Ovary tum E",[2]; Table 18,2.04
same,"gene expression level on custom gene array, Ovary tum F",[2]; Table 18,1.30
same,"gene expression level on custom gene array, Ovary tum G",[2]; Table 18,1.19
"p2A23 (nucleic acid, listed as Homo Sapiens) DNA: AGAAGAAGCTGGCCAAGGATATGGGAGCAACCACCATGGACCAGAAGTCTCTCTGGGCAGGTGTAGTGGTCTTGCTGCTTCTCCAGGGAGGATCTGCCTACAAACTGGTTTGCTACTTTACCAACTGGTCCCAGGACCGGCAGGAACCAGGAAAATTCACCCCTGAGAATATTGACCCCTTCCTATGCTCTCATCTCATCTATTCATTCGCCAGCATCGAAAACAACAAGGTTATCATCAAGGACAAGAGTGAAGTGATGCTCTACCAGACCATCAACAGTCTCAAAACCAAGAATCCCAAACTGAAAATTCTCTTGTCCATTGGAGGGTACCTGTTTGGTTCCAAAGGGTTCCACCCTATGGTGGATTCTTCTACATCACGCTTGGAATTCATTAACTCCATAATCCTGTTTCTGAGGAACCATAACTTTGATGGACTGGATGTAAGCTGGATCTACCCAGATCAGAAAGAAAACACTCATTTCACTGTGCTGATTCATGAGTTAGCAGAAGCCTTTCAGAAGGACTTCACAAAATCCACCAAGGAAAGGCTTCTCTTGACTGCGGGCGTATCTGCAGGGAGGCAAATGATTGATAACAGCTATCAAGTTGAGAAACTGGCAAAAGATCTGGATTTCATCAACCTCCTGTCCTTTGACTTCCATGGGTCTTGGGAAAAGCCCCTTATCACTGGCCACAACAGCCCTCTGAGCAAGGGGTGGCAGGACAGAGGGCCAAGCTCCTACTACAATGTGGAATATGCTGTGGGGTACTGGATACATAAGGGAATGCCATCAGAGAAGGTGGTCATGGGCATCCCCACATATGGGCACTCCTTCACACTGGCCTCTGCAGAAACCACCGTGGGGGCCCCTGCCTCTGGCCCTGGAGCTGCTGGACCCATCACAGAGTCTTCAGGCTTCCTGGCCTATTATGAGATCTGCCAGTTCCTGAAAGGAGCCAAGATCACGCGCCTCCAGGATCAGCAGGTTCCCTACGCAGTCAAGGGGAACCAGTGGGTGGGCTATGATGATGTGAAGAGTATGGAGACCAAGGTTCAGTTCTTAAAGAATTTAAACCTGGGAGGAGCCATGATCTGGTCTATTGACATGGATGACTTCACTGGCAAATCCTGCAACCAGGGCCCTTACCCTCTTGTCCAAGCAGTCAAGAGAAGCCTTGGCTCCTTGTGAAGGATTAACTTACAGAGAAGCAGGCAAGATGACCTTGCTGCCTGGGGCCTGCTCTCTCCCAGGAATTCTCATGTGGGATTCCCCTTGCCAGGCTGGCCTTTGGATCTCTCTTCCAAGCCTTTCCTGACTTCCTCTTAGATCATAGATTGGACCTGGTTTTGTTTTCCTGCAGCTGTTGACTTGTTGCCCTGAAGTACAATAAAAAAAATTCATTTTGCTCCAGTA",mRNA expression level,"[1]; cell type #1, HY (hypoxia) 6 hr",1.24
same,mRNA expression level,"[1]; cell type #1, HY (hypoxia) 18 hr",1.15
same,mRNA expression level,"[1]; cell type #1, NO (normoxia)",1.79
same,mRNA expression level,"[1]; cell type #2, HY (hypoxia) 6 hr",2.26
same,mRNA expression level,"[1]; cell type #2, HY (hypoxia) 18 hr",1.79
same,mRNA expression level,"[1]; cell type #2, NO (normoxia)",1.81
same,mRNA expression level,"[1]; cell type #3, HY (hypoxia) 6 hr",1.28
same,mRNA expression level,"[1]; cell type #3, HY (hypoxia) 18 hr",0.95
same,mRNA expression level,"[1]; cell type #3, NO (normoxia)",1.11
same,mRNA expression level,"[1]; cell type #4, HY (hypoxia) 6 hr",0.87
same,mRNA expression level,"[1]; cell type #4, HY (hypoxia) 18 hr",0.77
same,mRNA expression level,"[1]; cell type #4, NO (normoxia)",1.26
same,mRNA expression level,"[1]; cell type #5, HY (hypoxia) 6 hr",1.43
same,mRNA expression level,"[1]; cell type #5, NO (normoxia)",0.77
same,mRNA expression level,"[1]; cell type #6, HY (hypoxia) 6 hr",0.91
same,mRNA expression level,"[1]; cell type #6, NO (normoxia)",0.76
same,"gene expression level on custom gene array, Breast nor H",[2]; Table 19,1.36
same,"gene expression level on custom gene array, Breast nor K",[2]; Table 19,0.91
same,"gene expression level on custom gene array, Breast tum H",[2]; Table 19,2.22
same,"gene expression level on custom gene array, Breast tum K",[2]; Table 19,2.01
same,"gene expression level on custom gene array, Ovary nor E",[2]; Table 19,0.66
same,"gene expression level on custom gene array, Ovary nor F",[2]; Table 19,0.48
same,"gene expression level on custom gene array, Ovary nor G",[2]; Table 19,4.18
same,"gene expression level on custom gene array, Ovary tum E",[2]; Table 19,0.78
same,"gene expression level on custom gene array, Ovary tum F",[2]; Table 19,0.61
same,"gene expression level on custom gene array, Ovary tum G",[2]; Table 19,0.74
